# B1: muskelin CTLH-CRA domain (205–735 Δ248–625) [rat] / Twa1 CTLH-CRA domain (58-190), wild type [mouse] (parent complex)
# chain 1: EHPMLTDMHDKLVLKGDFDACEELIEKAVNDGLFNQYISQQEYPSKDYLLRHCKYLIRKHRFEEKAQMDPLSALKYLQNDLYITVDHSDPEETKEFQLLASALFKSGSDFTALGFSDVDHTYAQRTQLFDTLVNFFPDSMTPPKGNLVDLITL
# chain 2: SVDLETLDERIKIREMILKGQIQEAIALINSLHPELLDTNRYLYFHLQQQHLIELIRQRETEAALEFAQTQLAEQGEESRECLTEMERTLALLAFDSPEESPFGDLLHMMQRQKVWSEVNQAVLDYENRESTP
# Variants of: B1
# Test: ITC; 160 µM muskelin + 16 µM Twa1 mutants; read off a plot
row,Variant,dG [kcal/mol]
1,"chain 2 A68G, chain 2 Q69R, chain 2 A73Q, chain 2 L83K, chain 2 E87K, chain 2 L90F, chain 2 F95Y, chain 2 F103V",~-8.8

# — publication PMC13061415 (2026)
